Experimental data as given in patent US20250361322A1 (ICONIC THERAPEUTICS, published 2025).
Like-named read-outs stand apart in the source and are kept apart here.

Tests used:
[1] = biological target: T1, human TF ECD-His6 (human, UniProt P13726 33-251); experiment: BLI (ForteBio Octet)
T1 construct: Expi293-derived; Biacore used TF-His; also called TF-His; hTF
Protocol: (§1) Kinetic measurements for the anti-TF antibodies were conducted on an Octet QK384 (Pall ForteBio, Fremont, CA, USA) or a Biacore (GE Healthcare Bio-Sciences).
(§2) Briefly, ForteBio affinity measurements were performed by loading IgGs on-line onto AHC sensors. Sensors were equilibrated off-line in assay buffer for 30 min and then monitored on-line for 60 seconds for baseline establishment. Sensors with loaded IgGs were exposed to 100 nM antigen (human, cynomolgus, or mouse TF) for 3 min, afterwards they were transferred to assay buffer for 3 min for off-rate measurement. Alternatively, binding measurements were obtained by loading biotinylated TF monomer on SA sensors followed by exposure to 100 nM antibody Fab in solution. Kinetic data was analyzed and fitted using a 1:1 Langmuir binding model and the KD was calculated by dividing the koff by the kₒₙ.

[2] = biological target: T2, cynomolgus monkey TF ECD-His6 (cynomolgus monkey (Macaca fascicularis)); experiment: BLI (ForteBio Octet)
T2 construct: Expi293-derived; also called TF-His; cTF
T2 chain: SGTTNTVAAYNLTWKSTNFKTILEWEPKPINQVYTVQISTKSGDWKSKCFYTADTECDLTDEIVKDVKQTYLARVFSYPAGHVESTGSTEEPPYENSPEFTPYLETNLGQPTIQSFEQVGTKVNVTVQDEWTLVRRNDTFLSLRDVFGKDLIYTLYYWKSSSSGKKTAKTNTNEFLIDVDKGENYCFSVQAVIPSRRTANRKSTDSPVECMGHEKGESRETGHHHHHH
Protocol: as §1, §2

[3] = biological target: T3, pig TF ECD-His (pig (Sus scrofa)); experiment: SPR (Biacore), antibody captured by anti-human IgG
T3 construct: also called pig TF-His; pTF
T3 chain: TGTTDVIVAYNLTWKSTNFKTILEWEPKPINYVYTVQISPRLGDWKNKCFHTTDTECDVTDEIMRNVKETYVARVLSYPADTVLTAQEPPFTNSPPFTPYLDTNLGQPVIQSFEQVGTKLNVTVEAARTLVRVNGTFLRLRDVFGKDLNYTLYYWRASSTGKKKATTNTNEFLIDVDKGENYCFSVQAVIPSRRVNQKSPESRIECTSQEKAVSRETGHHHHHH
Protocol: (§3) For pig TF Biacore-based measurements, a given anti-TF antibody was captured by an anti-human IgG antibody covalently coupled to a CM5 chip (GE Healthcare Bio-Sciences). Association between the anti-TF antibodies and a five-point three-fold titration of pig TF-His starting at 100 nM was measured for 180 to 240 sec. Subsequently, dissociation between the anti-TF antibody and TF-His was measured for 1800 sec. Kinetic data was analyzed and fitted globally using a 1:1 binding model.
(§4) For rabbit TF Biacore-based measurements, a given anti-TF antibody was captured by an anti-human IgG antibody covalently coupled to a CM5 chip (GE Healthcare Bio-Sciences). Association between the anti-TF antibodies and a five-point three-fold titration of rabbit TF-His starting at 100 nM was measured for 180 to 240 sec. Subsequently, dissociation between the anti-TF antibody and TF-His was measured for 1800 sec. Kinetic data was analyzed and fitted globally using a 1:1 binding model.

[4] = biological target: T4, rabbit TF ECD-His (rabbit (Oryctolagus cuniculus), UniProt P24055 33-250); experiment: SPR (Biacore), antibody captured by anti-human IgG
T4 construct: also called rabbit TF-His
Protocol: as §3, §4

[5] = biological target: T5, full-length mouse TF with a C-terminal FLAG tag on Flp-In-CHO cells (mouse, UniProt P20352 29-294); experiment: flow cytometry, antibody titration on CHO cells expressing mouse TF
T5 construct: also called CHO-mTF; mouse TF-positive CHO cells
Protocol: (§5) After 2 washes, dead cells were labeled with TO-PRO-3 Iodide (ThermoFisher Scientific) and samples were analyzed on a CytoFLEX flow cytometer (Beckman Coulter, Brea, CA, USA) or Novocyte flow cytometer (ACEA Biosciences, San Diego, CA, USA). The median fluorescence intensities (MFIs) at each dilution were plotted and cell EC₅₀'s were derived using a 4-parameter binding model in Prism (GraphPad, La Jolla, CA, USA).

[6] = biological target: T5, full-length mouse TF with a C-terminal …; experiment: flow cytometry on CHO cells expressing mouse TF, MFI at 250 nM antibody
Protocol: as §5

[7] = biological target: T6, human Tissue Factor on human TF-positive cells (human, UniProt P13726 33-295); experiment: flow cytometry, antibody titration on HCT-116 cells (endogenous human TF), 4-parameter fit of MFI
T6 construct: also called hTF; CD142
Protocol: as §5

[8] = biological target: T6, human Tissue Factor on human …; experiment: competition flow cytometry on MDA-MB-231 cells: antibody titration first, then 20 nM FVII-Fc-Alexa488 as the blocked ligand
Protocol: (§6) After another 1 hr incubation on ice, cells were washed, stained with a viability dye, and analyzed by flow cytometry. The Alexa488 fluorescence data from viable cells was summarized using median fluorescence intensity.

[9] = biological target: T7, pig TF-His (Pig (Sus scrofa)); experiment: Biacore SPR, antibody captured by anti-human IgG on CM5, pig TF-His titrated
T7 construct: also called pig TF ECD-His; pTF
T7 chain: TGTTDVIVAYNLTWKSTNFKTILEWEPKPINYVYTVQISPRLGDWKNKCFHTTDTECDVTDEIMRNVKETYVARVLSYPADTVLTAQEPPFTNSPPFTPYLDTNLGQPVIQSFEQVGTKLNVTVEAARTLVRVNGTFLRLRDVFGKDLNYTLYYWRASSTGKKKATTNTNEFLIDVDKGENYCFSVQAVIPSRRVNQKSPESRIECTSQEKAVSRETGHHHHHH
Protocol: (§7) The ability of certain antibodies was tested for binding to pig TF. For pig TF Biacore-based measurements, a given anti-TF antibody was captured by an anti-human IgG antibody covalently coupled to a CM5 chip (GE Healthcare Bio-Sciences). Association between the anti-TF antibodies and a five-point three-fold titration of pig TF-His starting at 100 nM was measured for 180 to 240 sec. Subsequently, dissociation between the anti-TF antibody and TF-His was measured for 1800 sec. Kinetic data was analyzed and fitted globally using a 1:1 binding model.

[10] = biological target: T8, rTF (rat TF) (rat, UniProt P42533 29-252); experiment: live cell staining, flow cytometry, transfected HEK293
Protocol: (§8) To establish binding of the anti-human TF antibodies to the various TF constructs, HEK293 cells were transfected with a DNA plasmid that co-expresses the TF construct and a green fluorescent protein marker. […] Upon acquisition of 80,000 live events on a flow cytometer, live cells marked with the fluorescent marker were analyzed for the degree of staining by the anti-TF antibody.

[11] = biological target: T9, h1-107_r (human/rat chimera); experiment: as above
T9 chain: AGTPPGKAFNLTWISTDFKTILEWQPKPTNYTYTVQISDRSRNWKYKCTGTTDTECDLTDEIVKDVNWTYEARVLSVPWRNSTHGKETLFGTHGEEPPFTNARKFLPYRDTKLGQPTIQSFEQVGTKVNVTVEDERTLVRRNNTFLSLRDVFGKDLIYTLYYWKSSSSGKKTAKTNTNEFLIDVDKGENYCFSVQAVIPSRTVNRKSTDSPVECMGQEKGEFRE
Protocol: as §8

[12] = biological target: T10, h1-77_r (human/rat chimera); experiment: as above
T10 construct: Human TF ECD with residues 1-77 replaced by rat segment
Protocol: as §8

[13] = biological target: h78-107_r.v2 (human/rat chimera); experiment: as above
Protocol: as §8

[14] = biological target: T11, hTF (human Tissue Factor construct) (human, UniProt P13726 33-251); experiment: as above
T11 construct: also called human TF
Protocol: as §8

[15] = biological target: T8, rTF (rat TF); experiment: as above; remark: listed apart in the source
Protocol: as §8

[16] = biological target: r141-194_h (rat/human chimera, UniProt P42533 29-252); experiment: as above
Protocol: as §8

[17] = biological target: T12, hTF_N171H_T197K (human, UniProt P13726 33-251); experiment: as above
T12 chain: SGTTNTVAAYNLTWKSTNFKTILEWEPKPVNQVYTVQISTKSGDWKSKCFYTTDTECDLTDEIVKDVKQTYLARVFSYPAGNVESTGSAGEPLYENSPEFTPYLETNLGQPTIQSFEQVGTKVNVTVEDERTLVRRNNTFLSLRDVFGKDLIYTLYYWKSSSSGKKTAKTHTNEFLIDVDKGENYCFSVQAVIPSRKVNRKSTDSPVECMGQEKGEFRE
Protocol: as §8

[18] = biological target: T13, pig TF ECD-His (TF-His) protein (pig (Sus scrofa)); experiment: Biacore; antibody captured by anti-human IgG on CM5 chip, titration of pig TF-His
T13 construct: also called pig TF-His; pTF
T13 chain: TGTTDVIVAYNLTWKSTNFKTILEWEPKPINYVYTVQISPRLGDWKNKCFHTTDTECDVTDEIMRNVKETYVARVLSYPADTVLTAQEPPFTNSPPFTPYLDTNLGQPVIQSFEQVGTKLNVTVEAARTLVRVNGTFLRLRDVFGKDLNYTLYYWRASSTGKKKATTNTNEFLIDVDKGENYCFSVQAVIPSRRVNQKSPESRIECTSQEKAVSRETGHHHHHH
Protocol: as §7

[19] = biological target: T14, rabbit TF ECD-His (TF-His) protein (rabbit (Oryctolagus cuniculus), UniProt P24055 33-250); experiment: Biacore; antibody captured by anti-human IgG on CM5 chip, titration of rabbit TF-His
T14 construct: also called rabbit TF-His
Protocol: The ability of certain antibodies was tested for binding to rabbit TF. For rabbit TF Biacore-based measurements, a given anti-TF antibody was captured by an anti-human IgG antibody covalently coupled to a CM5 chip (GE Healthcare Bio-Sciences). Association between the anti-TF antibodies and a five-point three-fold titration of rabbit TF-His starting at 100 nM was measured for 180 to 240 sec. Subsequently, dissociation between the anti-TF antibody and TF-His was measured for 1800 sec. Kinetic data was analyzed and fitted globally using a 1:1 binding model.

[20] = biological target: T15, rTF (rat TF) construct on HEK293 cells (rat, UniProt P42533 29-252); experiment: live cell staining, HEK293 cells
T15 construct: not shown: transmembrane/cytoplasmic anchor of the cell-surface construct

[21] = biological target: T6, human Tissue Factor on human …; experiment: competition flow cytometry on MDA-MB-231 cells: antibody titration first, then 20 nM FVII-Fc-Alexa488 as the blocked ligand; remark: listed apart in the source
[22] = biological target: T6, human Tissue Factor on human …; experiment: competition flow cytometry on MDA-MB-231 cells: unlabeled antibody titration first, then 20 nM 39A-Alexa488 as the competitor
Protocol: as §6

T14 sequence (P24055 other isoform, or with tags, fused parts or gaps): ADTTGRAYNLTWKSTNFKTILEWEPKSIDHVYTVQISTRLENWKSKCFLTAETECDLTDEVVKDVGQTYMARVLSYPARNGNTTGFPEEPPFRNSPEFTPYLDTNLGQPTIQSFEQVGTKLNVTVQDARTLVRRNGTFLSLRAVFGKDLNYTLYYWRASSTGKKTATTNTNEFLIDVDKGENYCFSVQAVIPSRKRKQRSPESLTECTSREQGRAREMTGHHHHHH
T4 sequence (P24055 other isoform, or with tags, fused parts or gaps): as above
T15 sequence (P42533 29-252 limits assumed): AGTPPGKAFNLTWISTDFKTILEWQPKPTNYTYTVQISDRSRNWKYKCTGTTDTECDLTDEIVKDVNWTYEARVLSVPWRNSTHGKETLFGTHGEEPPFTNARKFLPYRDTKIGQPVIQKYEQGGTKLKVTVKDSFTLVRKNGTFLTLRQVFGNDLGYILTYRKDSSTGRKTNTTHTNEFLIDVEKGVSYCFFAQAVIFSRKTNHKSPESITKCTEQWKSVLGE

B1: 29D (antibody, human IgG1, V domains shown)
VH: QVQLVESGGGVVQPGRSLRLSCAASGFTFHSRGMHWVRQAPGKGLEWVAVITYDGINKYYADSVEGRFTISRDNSKNTLYLQMNSLRAEDTAVYYCARDGVYYGVYDYWGQGTLVTVSS
VL: not shown
notes: Human IgG1; also called antibody designated 29D
- Kd [1]: 3.3 nM
- Kd [2]: 12 nM
- binding result [3]: no binding (tested: titration starting at 100 nM)
- binding result [4]: no binding (tested: titration starting at 100 nM)
- binding result [5]: no binding (tested: 250 nM)
- MFI at 250 nM [6]: 30000
- EC50 [7]: 0.237 nM
- IC50 (read off the curve) [8]: ~2 nM

B2: 29D (antibody, V domains shown)
VH: QVQLVESGGGVVQPGRSLRLSCAASGFTFHSRGMHWVRQAPGKGLEWVAVITYDGINKYYADSVEGRFTISRDNSKNTLYLQMNSLRAEDTAVYYCARDGVYYGVYDYWGQGTLVTVSS
VL: not shown
notes: Human IgG (captured by anti-human IgG in the Biacore assay); also called antibody designated 29D
- binding result [9]: no binding

B3: 29E (antibody, V domains shown)
VH: QVQLVESGGGVVQPGRSLRLSCAASGFTFRSYGMHWVRQAPGKGLEWVAVITYDGINKYYADSVEGRFTISRDNSKNTLYLQMNSLRAEDTAVYYCARDGVYYGVYDYWGQGTLVTVSS
VL: not shown
notes: Human IgG (detected with anti-human IgG-Fc)
- percent antibody binding to TF construct relative to hTF [10]: 0%
- percent antibody binding to TF construct relative to hTF [11]: 0%
- percent antibody binding to TF construct relative to hTF [12]: 0%
- percent antibody binding to TF construct relative to hTF [13]: 0%
- percent antibody binding to TF construct relative to hTF [14]: 100%
- percent antibody binding to TF construct relative to hTF [15]: 0%
- percent antibody binding to TF construct relative to hTF [16]: 0%
- percent antibody binding to TF construct relative to hTF [17]: 98%

B4: anti-TF antibody 29D (antibody, human IgG1, V domains shown)
VH: QVQLVESGGGVVQPGRSLRLSCAASGFTFHSRGMHWVRQAPGKGLEWVAVITYDGINKYYADSVEGRFTISRDNSKNTLYLQMNSLRAEDTAVYYCARDGVYYGVYDYWGQGTLVTVSS
VL: not shown
notes: Human IgG1
- binding result [18]: no binding
- binding result [19]: no binding

B5: TF-011 (antibody, V domains shown)
VH: EVQLLESGGGLVQPGGSLRLSCAASGFTFSNYAMSWVRQAPGKGLEWVSSISGSGDYTYYTDSVKGRFTISRDNSKNTLYLQMNSLRAEDTAVYYCARSPWGYYLDSWGQGTLVTVSS
VL: DIQMTQSPPSLSASAGDRVTITCRASQGISSRLAWYQQKPEKAPKSLIYAASSLQSGVPSRFSGSGSGTDFTLTISSLQPEDFATYYCQQYNSYPYTFGQGTKLEIK
notes: Previously described anti-TF antibody; also called tisotumab
- binding result [20]: no binding
- IC50 [21]: 1.01 nM
- IC50 [22]: 0.61 nM

B6: 1G (antibody, human IgG1, V domains shown)
VH: EVQLLESGGGLVQPGGSLRLSCAASGFTFSSYAMAWVRQAPGKGLEWVSAISGSGGLTYYADSVKGRFTISRDNSKNTLYLQMNSLRAEDTAVYYCAKAPYGYYMDVWGKGTTVTVSS
VL: not shown
notes: Human IgG1; also called antibody designated 1G
- Kd [1]: 2.2 nM
- Kd [2]: 2.7 nM
- binding result [3]: no binding (tested: titration starting at 100 nM)
- binding result [4]: no binding (tested: titration starting at 100 nM)
- binding result [5]: no binding (tested: 250 nM)
- MFI at 250 nM [6]: 4300
- EC50 [7]: 0.058 nM
- IC50 (read off the curve) [8]: ~1 nM

B7: 1G (antibody, V domains shown)
VH: EVQLLESGGGLVQPGGSLRLSCAASGFTFSSYAMAWVRQAPGKGLEWVSAISGSGGLTYYADSVKGRFTISRDNSKNTLYLQMNSLRAEDTAVYYCAKAPYGYYMDVWGKGTTVTVSS
VL: not shown
notes: Human IgG (captured by anti-human IgG in the Biacore assay); also called antibody designated 1G
- binding result [9]: no binding

B8: anti-TF antibody 1G (antibody, human IgG1, V domains shown)
VH: EVQLLESGGGLVQPGGSLRLSCAASGFTFSSYAMAWVRQAPGKGLEWVSAISGSGGLTYYADSVKGRFTISRDNSKNTLYLQMNSLRAEDTAVYYCAKAPYGYYMDVWGKGTTVTVSS
VL: not shown
notes: Human IgG1
- binding result [18]: no binding
- binding result [19]: no binding

B9: 1F (antibody, V domains shown)
VH: EVQLLESGGGLVQPGGSLRLSCAASGFTFSDYAMGWVRQAPGKGLEWVSTISGSGGLTYYADSVKGRFTISRDNSKNTLYLQMNSLRAEDTAVYYCAKAPYGYYMDVWGKGTTVTVSS
VL: not shown
notes: as for B3
- percent antibody binding to TF construct relative to hTF [10]: 0%
- percent antibody binding to TF construct relative to hTF [11]: 0%
- percent antibody binding to TF construct relative to hTF [12]: 0%
- percent antibody binding to TF construct relative to hTF [13]: 0%
- percent antibody binding to TF construct relative to hTF [14]: 100%
- percent antibody binding to TF construct relative to hTF [15]: 0%
- percent antibody binding to TF construct relative to hTF [16]: 0%
- percent antibody binding to TF construct relative to hTF [17]: 83%
